From the RNAGym collection of RNA variant scans (doi:10.1073/pnas.2313332121)

B1: TPR t1 (parent)
chain: GACCAAUCUGCCCUCAGAGCUCGAGAACAUCUUCGGAUGCAGAGGAGGCAGGCUUCGGUGGCGCGAUAGCGCCAACGUCCUCAACCUCCAAUGCAUCCCACCACAUGAUGAUGCCUGAAGAGCCUUGGUUUUUUG

Variants of: B1
Assay: polymerase ribozyme fitness, log enrichment relative to wild type (log ratio); higher = more active; in vitro selection for triplet polymerase activity
Procedure, shortened: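 Fitness is a logarithmic measure of how a genotype enriched relative to the wild type, with replicate averages weighted by inverse variance. The logarithm uses base 2, and enrichment came from Illumina sequencing of input and output libraries. Those libraries were PCR-built, transcribed mutants of each subunit of a heterodimeric triplet polymerase ribozyme, passed through one triplicate in vitro selection round that included frozen incubation at −7 °C, gel excision of extended constructs and streptavidin-bead capture. Genotypes were kept only if they had ≥10 input reads and ≥1 read per output.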

| Variant | polymerase ribozyme fitness (log ratio) |
| --- | --- |
| A2C U59G | -1.54 |
| C3U C73U A100C | -1.36 |
| C3A G44U G63C | -3.25 |
| C3U C11G C12A A50U C56G A83U G93C G113U | -5.9 |
| C3U C13U U59A | -0.207 |
| A2G G51A C73G | -2.89 |
| C3U C34A C53A C79U C88U C97U | -2.66 |
| C3U C40G G63C C115U | -2.66 |
| A2G G61A | 0.0396 |
| A2C U33A C97A U106A G120C U126A | -6.8 |
| C3U C53G C88A U112G U129A | -2.53 |
| C3A C53G C64U A118G C123U | -1.11 |
| A2G G52U G69C C86U | -1.64 |
| C3G G44U G45U C89A C94U A111U C123U U129C G135A | -4.23 |
| A2U C11G G48U G93U G120C G122U | -1.28 |
| A2G G10U A43U C62G C79U | -3.6 |
| A2G C56A C73U A84U G120U | -1.68 |
| C3U A5G C34U G61C C62G C94U U109A C115U | -6.29 |
| A2U C8G A27C G36C C40G G60A G93C G110U U130G | -5.89 |
| C3U G45A G48U G60A | -1.92 |
| A2U C40U C115A U133G | -2.75 |
| A2C U54C G110A | -3.04 |
| C3A A5C G48A C101A G122A | -1.86 |
| A2G C12G U21A G71U U78A A121U | 0.758 |

| Variant | polymerase ribozyme fitness (log ratio) |
| --- | --- |
| A2U C11U G45A U81C | -6.34 |
| C3G U7G C15U U55G C56U G128U | -1.45 |
| C3A G36A C64U C123G | -0.723 |
| A2U A16G A26U G60U A119G | -4.84 |
| C3G C102A | -4.71 |
| A2U C11A U33A A37U G61U G120A | -4.91 |
| C3G C49A G57U C64U G120U G128U | -1.81 |
| A2U G71U A74C | -4.54 |
| C3A C49A A75U C123U | 0.0976 |
| C3G A24G | -3.73 |
| A2G C12G G17A U54C C88U A91U C101U A105U C114G | -5.19 |
| A2G G10C G51C G52U | -5.66 |
| A2U A5C A26G U54A | -4.4 |
| A2G U21A G69U G71C | -4.01 |
| A2G C13U C53U | -0.428 |
| C3U C11U G48A C56U C89G C101U | -3.51 |
| A2G C123G | 1.69 |
| C3U C56G | -0.409 |
| C3U G19A C53G U87A C124A | -1.53 |
| C3U C4A C53G C88U A90C C123A U130C | -0.356 |
| C3A C15U C40U C88U | -3.42 |
| C3U U14A | -2.47 |
| A2U G39C G45A U132A | -3.5 |
| A2G C114A U126C | -4.32 |

| Variant | polymerase ribozyme fitness (log ratio) |
| --- | --- |
| A2G C56A | -0.384 |
| A2G G61A U116A | -4.16 |
| A2U C12A G63U C104G U109C | -6.12 |
| C3U C22A U54C C72U C79U C82U A100U | -6.11 |
| C3A C8G C12A C13U C20G G35C C70G A118G C124A U132A | -6.19 |
| A2C U106A | -1.44 |
| A2U G93C | -3.65 |
| A2G G63A C99U C101A A121G C124G | -4.81 |
| A2G G122A U129C | -1.77 |
| A2U A37G G61A U87G | -2.89 |
| A2G C22A | -4.99 |
| C3G C49U U78A C115A | -3.75 |
| C3G G60C | -1.74 |
| C3U C11A C73G A75U C99G A103U A121G | -7.22 |
| C3A C8A C12G G60A U92A C124A | -2.58 |
| C3G A6C C49A C53U G61C C97U C101U | -3.42 |
| C3U C11G C12A A50U C56G G113U | -6.33 |
| A2G U7A C12A G39A C82A G122A | -0.0716 |
| A2U C13A C28U U112G | -6 |
| C3A G36C C70G G120A A121U | -3.08 |
| A2U U54C C115A | -2.65 |
| A2G G36C G48U G52U U59G C79G U112C | 0.109 |
| A2U C76A | -3.43 |
| C3U G61U C85U C101A | -2.34 |

| Variant | polymerase ribozyme fitness (log ratio) |
| --- | --- |
| C3U G48U G61C G65U G71A | -4.29 |
| C3A U14G C62A A119U G120A | -2.14 |
| C3U G57U | -0.67 |
| A2G G120A | 0.359 |
| C3U G23A G39U G48C A68G C99U C114A | -5.71 |
| C3A C53G | -1.72 |
| C3A G60A U112C | 0.261 |
| C3A A18C U112C U130C | -0.927 |
| C3U G117U | -2.69 |
| C3U G117A | -1.5 |
| C3A C79U C124G | 0.849 |
| C3U G77U G120C | 0.534 |
| A2U A6G G17U G39U G52U C73G | -5.54 |
| A2U G47A C72A A121G | -0.127 |
| C3A G48A A84G C114U | -3.87 |
| C3G C97U | -2.53 |
| C3G U55C C72U G93A | -4.63 |
| C3U C76G | -1.27 |
| C3U C56G C73U | -1.31 |
| A2U G120C G135A | 0.456 |
| C3U C86G G110C C124A | -5.57 |
| A2G A18U A29G C104G C124U U130G | -4.82 |
| A2U C13U A50G G63A U112C | -1.43 |
| C3G C11A G36C C64U | -3.94 |

| Variant | polymerase ribozyme fitness (log ratio) |
| --- | --- |
| C3U G47U A50C | -2.21 |
| A2U U32C G48A C49G C64U | -3.23 |
| C3A C56A C89A C115U | -3.79 |
| A2U G51A C123A | -4.9 |
| A2U C12U A27U G47A | -5.43 |
| C3U C15A G52C | -3.65 |
| C3A U33A G48U A121C C124G | -4.93 |
| C3U A16C G17A U54C U78C A90C | -2.6 |
| C3U C8G G10U G45C G71U C85A | -2.2 |
| C3U G45U C72G | -2.05 |
| C3U U7C G48U C70U | -1.98 |
| C3U C13U G57U C79U A100C | -0.594 |
| A2U C13A C73U A74G | -3.05 |
| C3A U32A C64G C99A | -7.73 |
| C3U A6U G52U A111U A118U | -4.02 |
| C3G G60U U87A | -2.32 |
| C3U C70A U78C A91C C97G A121U | -6.74 |
| C3U G47A | -0.64 |
| A2G G107U | -5.37 |
| A2U U9G G47U C88U G113A | -4.58 |
| A2U A121U | -0.628 |
| C3A C85U A90U C114U G127C | -2.77 |
| A2G G39U G57C A74U U112A C114G | -2.17 |
| C3G A18C C22A A26G G60U A95U G120A | -4.84 |

| Variant | polymerase ribozyme fitness (log ratio) |
| --- | --- |
| C3G C12G C53A G61U C114G | -5.41 |
| C3G C102U C123A | -2.99 |
| C3U A18U C89U G120C G122U | -3.19 |
| C3U G113U | -2.47 |
| A2G U9C C13U A18U C56G C72G A95G | -4.64 |
| C3U G48C C82G | -1.66 |
| A2G C13U A91C G122A | -0.77 |
| C3G C8G C12U C79U G110C U130A | -5.96 |
| C3U U7C A18C G52A C72U C94A | -4.4 |
| C3U C72G A90U U106A | -1.94 |
| C3U G48C C76A C79A C101G | -4.45 |
| C3A C11U C49G C53A G60A C101A | -3.22 |
| C3A C13G C89U G128C | -3.62 |
| A2G C11A C56G | -1.58 |
| C3U U7A U54C A95G U112A | 0.973 |
| A2U C40U G47U C72U C124A | -3.11 |
| C3A A29U | -3.36 |
| A2G G48U C80U U130C | -2.35 |
| C3A U38A A121C U129A | -0.064 |
| C3A G42A G57C G107U C114U G128U U130C | -4.37 |
| A2U C102U G113A U129A | -2.88 |
| C3U G63C U78C | -3.19 |
| C3G G17A G120C | -5.46 |
| A2U C62U G117U | -5.02 |

| Variant | polymerase ribozyme fitness (log ratio) |
| --- | --- |
| C3A G45A | -2.42 |
| C3G C12G C62U | -2.34 |
| A2G G110U A118G | -1.67 |
| A2U C8U G69U C82G C114U | -2.12 |
| C3G G36U C79U C89G C123G U133G | -3.18 |
| C3G A95G | -2.02 |
| C3A A66C | -2.64 |
| C3A G10U U38A C49U C82U G128A U131G | -1.74 |
| A2U C22U C86U G110U | -6.04 |
| C3U A43U C56G U81A A95U A111G G122A | -5.71 |
| A2U C11G | 0.322 |
| A2G G19U C34U G47A C49A C80A G93C G120U | -6.24 |
| A2G G93C | -1.48 |
| C3U A29U U109A | 0.179 |
| A2G C82G | -1.18 |
| A2U C99U | -5.84 |
| C3U A43C C73A U87G | -2.3 |
| C3A C11G G48U C114A | -2.07 |
| C3A A46U A50U G57A | -4.95 |
| A2G C20A C88U | -4.8 |
| C3G C15A C22G C115U | -4.4 |
| C3U C15U G39C | -2.34 |
| C3U C13U A41G G61U C79A C85U G120U G127C | -3.54 |
